Experimental findings from patent US20150183880A1 are described below.

Experiment [1] addresses recombinant human IGF-1R (R&D Systems, Catalog #391-GR), extracellular domain (human) (UniProt P08069). The experiment is described as follows: rhIGF-1R-coated beads; competitor unlabeled hR1.
Experiment [2] has the same target. The experiment can be described thus: rhIGF-1R-coated beads; competitor unlabeled 2C8.
The target is the same in experiment [3]. The experiment can be described thus: rhIGF-1R-coated beads; competitor unlabeled R1.
Experiment [4] has the same target. The experiment is described as follows: rhIGF-1R-coated beads; competitor unlabeled 17-69.
Experiment [5] shares this target. The experiment can be described thus: rhIGF-1R-coated beads; competitor unlabeled 1H7.
For experiment [6] the target is unchanged. The experiment can be described thus: rhIGF-1R-coated beads; competitor unlabeled αIR-3.
For experiment [7] the target is unchanged. The experiment can be described thus: rhIGF-1R-coated beads; competitor unlabeled MAB391.
The target is the same in experiment [8]. The experiment can be described thus: rhIGF-1R-coated beads; competitor unlabeled 24-57.
Experiment [9] has the same target. The experiment is described as follows: rhIGF-1R-coated beads; competitor unlabeled 24-31.
Experiment [10] shares this target. The experiment is described as follows: rhIGF-1R-coated beads; competitor unlabeled 24-60.
Experiment [11] shares this target. The experiment can be described thus: rhIGF-1R-coated beads; competitor unlabeled 3B7.
Experiment [12] has the same target. The experiment can be described thus: rhIGF-1R-coated beads; competitor unlabeled cR1.
For experiment [13] the target is unchanged. The experiment is described as follows: rhIGF-1R-coated beads; competitor unlabeled 1-2.
For experiment [14], the target named is IGF-1R expressed on cancer cell lines (MCF-7, MCF-7L, CaPan1, DU-145, ME-180, Hep G2, HT-29, LNCaP) (human) (UniProt P08069). The experiment is described as follows: 125I-IGF-1 binding to MCF-7L cells with antibody at 1000 ng/mL.
Experiment [15] shares this target. The experiment can be described thus: 125I-IGF-1 binding to MCF-7L cells with antibody at 100 ng/mL.
Experiment [16] shares this target. The experiment can be described thus: 125I-IGF-1 binding to MCF-7L cells with antibody at 10 ng/mL.
The target is the same in experiment [17]. The experiment can be described thus: 125I-IGF-1 binding to MCF-7L cells with antibody at 0 ng/mL (baseline).
The target in experiment [18] is EGP-1 expressed on cancer cell lines (MCF-7, DU-145, ME-180) (UniProt P09758). The experiment is described as follows: flow cytometry (FACScan), ME-180 cells. In general terms: Flow cytometry measures light scatter and fluorescence of single cells or particles in a stream.
The target is the same in experiment [19]. The experiment is described as follows: flow cytometry (FACScan), MCF-7 cells.
The target is the same in experiment [20]. The experiment is described as follows: flow cytometry (FACScan), DU145 cells.
Experiment [21] addresses IGF-1R and EGP-1 together on cancer cell lines (MCF-7, DU-145, ME-180). The experiment can be described thus: flow cytometry (FACScan), MCF-7 cells; structural control.
Experiment [22] has the same target. The experiment can be described thus: flow cytometry (FACScan), MCF-7 cells; control.

EGP-1 expressed on cancer cell lines (MCF-7, DU-145, ME-180), sequence (P09758 27-323 limits assumed): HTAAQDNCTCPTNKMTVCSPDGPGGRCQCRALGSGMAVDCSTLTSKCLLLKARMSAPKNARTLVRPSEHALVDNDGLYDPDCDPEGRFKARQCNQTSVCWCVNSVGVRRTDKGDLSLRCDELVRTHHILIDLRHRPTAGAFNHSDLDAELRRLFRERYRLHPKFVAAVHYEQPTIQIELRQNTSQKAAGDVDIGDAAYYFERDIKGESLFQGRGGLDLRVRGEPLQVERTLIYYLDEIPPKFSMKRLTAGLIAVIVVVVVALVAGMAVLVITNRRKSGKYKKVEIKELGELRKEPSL

For “αIR-3 (commercial anti-IGF-1R mAb) (antibody)”, the % binding in experiment [1] is 107%; in experiment [2], 97%; in experiment [3], 86%; in experiment [4] it was 89%; in experiment [5], 115%; in experiment [6] it was 0%. For the same substance, the % binding in experiment [7] came out at 0%; in [8] it was 87%; in experiment [9], 52%; in experiment [10], 0%; in experiment [11], 76%; in [12], 97%. In [13], the % binding was 95%.
As to “MAB391 (commercial mouse anti-IGF-1R monoclonal antibody, R&D clone 33255.111)”, the % binding of 125I-IGF-1 is 38% in [14], 54% in experiment [15], 95% in [16] and 100% in experiment [17]. The % binding in experiment [3] came to 40%; in experiment [7] it was 0%.
“Hex-hRS7 (monospecific hexavalent DNL construct of hRS7, anti-EGP-1)”: the % Positive in [18] is 100%; in experiment [19], 99.9%; in experiment [20], 93.7%. Moreover, the MFI in experiment [18] came to 59.6; in experiment [19], 35.7; in experiment [20], 17.
In experiment [21], “22-20 (bispecific hexavalent DNL construct: hLL2 IgG-AD2 with four hA20 Fab-DDD2) (bispecific antibody)” showed a % Positive of 3.1% and an MFI of 2.11.
For “24-60 (commercial anti-IGF-1R mAb) (antibody)”, the % binding came out at 0% in experiment [1]; 88% in experiment [2]; 0% in experiment [3]; 82% in experiment [4]; 100% in experiment [5]; 21% in experiment [6]. The % binding in experiment [7] is 0%; in experiment [8], 88%; in [9], 18%; in experiment [10] it was 0%; in [11], 79%; in [12], 0%. For the same substance, in experiment [13], the % binding came to 100%.
In experiment [22], human IgG (control) (antibody) had a % Positive of 2.34% and an MFI of 1.84.
